Measured values reported in US20190054150A1 (AEQUUS BIOPHARMA, published 2019).
Square brackets hold non-standard residues; d marks the D form. Ends that are not written are not given here. Nle = CCCC[C@H](N)C(=O)O

Experiments:
Experiment in all cases: cell-based or functional assay
MCR1 = MCR1 (human, UniProt Q01726 1-317)
MCR5 = MCR5 (human, UniProt P33032 1-325)
MCR3 = MCR3 (human, UniProt P41968 1-323)
MCR4 = MCR4 (human, UniProt P32245 1-332)
Sequence of MCR4 (P32245 whole entry): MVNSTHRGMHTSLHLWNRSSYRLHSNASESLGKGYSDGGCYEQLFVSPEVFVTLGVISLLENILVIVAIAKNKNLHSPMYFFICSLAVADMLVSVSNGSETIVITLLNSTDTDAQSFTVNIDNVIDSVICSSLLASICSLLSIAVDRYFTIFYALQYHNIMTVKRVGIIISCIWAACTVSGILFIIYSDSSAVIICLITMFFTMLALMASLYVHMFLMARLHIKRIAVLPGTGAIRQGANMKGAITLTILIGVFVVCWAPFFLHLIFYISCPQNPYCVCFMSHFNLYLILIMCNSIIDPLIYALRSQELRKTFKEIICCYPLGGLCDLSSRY

Sequence of MCR5 (P33032 whole entry): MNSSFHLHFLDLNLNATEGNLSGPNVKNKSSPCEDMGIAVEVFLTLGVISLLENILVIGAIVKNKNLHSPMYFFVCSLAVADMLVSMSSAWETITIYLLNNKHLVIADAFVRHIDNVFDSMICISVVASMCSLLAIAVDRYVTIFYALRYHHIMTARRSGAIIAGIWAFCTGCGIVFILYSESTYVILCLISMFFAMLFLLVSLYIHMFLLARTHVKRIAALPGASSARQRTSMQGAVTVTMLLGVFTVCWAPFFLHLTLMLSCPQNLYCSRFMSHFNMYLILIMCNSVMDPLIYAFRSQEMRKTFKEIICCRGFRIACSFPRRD
Sequence of MCR1 (Q01726 whole entry): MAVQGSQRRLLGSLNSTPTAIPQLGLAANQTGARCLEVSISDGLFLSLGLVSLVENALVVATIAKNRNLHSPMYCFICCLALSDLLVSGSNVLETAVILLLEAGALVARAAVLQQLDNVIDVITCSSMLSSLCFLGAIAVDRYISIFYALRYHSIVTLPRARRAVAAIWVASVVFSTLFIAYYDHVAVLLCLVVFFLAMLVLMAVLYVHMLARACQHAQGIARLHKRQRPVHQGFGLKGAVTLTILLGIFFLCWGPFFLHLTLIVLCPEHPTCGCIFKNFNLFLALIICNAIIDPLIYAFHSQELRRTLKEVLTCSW
Sequence of MCR3 (P41968 whole entry): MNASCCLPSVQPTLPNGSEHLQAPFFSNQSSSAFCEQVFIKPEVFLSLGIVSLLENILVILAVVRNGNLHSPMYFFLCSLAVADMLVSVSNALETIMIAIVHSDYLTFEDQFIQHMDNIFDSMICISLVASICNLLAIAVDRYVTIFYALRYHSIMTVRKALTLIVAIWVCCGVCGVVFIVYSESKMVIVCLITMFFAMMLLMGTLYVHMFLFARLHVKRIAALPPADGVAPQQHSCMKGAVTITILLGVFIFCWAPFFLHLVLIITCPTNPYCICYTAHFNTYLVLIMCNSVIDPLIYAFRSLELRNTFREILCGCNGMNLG

Binder	MCR1 EC50 (nM); cAMP production, LANCE cAMP assay, CHO-MCR1 cells, cell pool C (MCR1) [nM]	MCR5 EC50 (nM); cAMP production, LANCE cAMP assay, CHO-MCR5 cells, cell pool C (MCR5) [nM]	MCR3 EC50 (nM); cAMP production, LANCE cAMP assay, CHO-MCR3 cells, cell pool C (MCR3) [nM]	MCR4 EC50 (nM); cAMP production, LANCE cAMP assay, CHO-MCR4 cells, cell pool C (MCR4) [nM]	MCR1 EC50 (nM); cAMP production, LANCE cAMP assay, CHO-MCR1 cells, cell pool B (MCR1) [nM]	MCR3 EC50 (nM); cAMP production, LANCE cAMP assay, CHO-MCR3 cells, cell pool B (MCR3) [nM]	MCR4 EC50 (nM); cAMP production, LANCE cAMP assay, CHO-MCR4 cells, cell pool B (MCR4) [nM]
SYSMEHFRWGKPVGKKRRPVKVYPGGGGSGGGGSSYS[Nle]EH[dF]RWGKPV (ends and bridges not checked) [ACTH1-24-linker-linker-NDP-α-MSH]	0.39	9.6	0.8	1.8			
SYSMEHFRWGKPVGKKRRPVKVYPSYS[Nle]EH[dF]RWGKPV (ends and bridges not checked) [ACTH1-24-NDP-α-MSH]	0.28	24	1.5	2.3			
SYSMEHFRWGKPVGKKAAAVKVYPGGGGSGGGGSSYS[Nle]EH[dF]RWGKPV (ends and bridges not checked) [ACTH1-24-point-3-5-10aa-NDP-α-MSH]	0.78	16	1.1	3.8			
SYSMEHFRWGKPVGKKAAAVKVYPSYS[Nle]EH[dF]RWGKPV [ACTH1-24-point-3-5-NDP-α-MSH]	0.32	25	0.92	2.2			
SYSMEHFRWGKPVGAARRPVKVYP [ACTH1-24-point-1-2]	0.43	275	10	62			
ACTH1-24-natural C-terminal spacer-α-MSH (peptide) peptide: SYSMEHFRWGKPVGKKRRPVKVYPELTGQRLREGDGPDGPADDGAGASYSMEHFRWGKPV					1.02	22	> 20
SYSMEHFRWGKPVGKKRRAVKVYP [ACTH1-24-point-5]	0.31	> 100	10	60			
SYSMEHFRWGKPVGKKRRAVKVYPGGGSSYS[Nle]EH[dF]RWGKPV [ACTH1-24-point-5-4aa-NDP-α-MSH]	0.32	20	0.68	1.8			
SYSMEHFRWGKPVGKKRRAVKVYPGGGGSGGGGSSYS[Nle]EH[dF]RWGKPV [ACTH1-24-point-5-10aa-NDP-α-MSH]	0.69	11	1	2.8			
SYSMEHFRWGKPVGKKAAAVKVYPGGGSSYS[Nle]EH[dF]RWGKPV (ends and bridges not checked) [ACTH1-24-point-3-5-4aa-NDP-α-MSH]	0.3	14	0.61	2.4			
SYSMEHFRWGKPVGAARRPVKVYPSYS[Nle]EH[dF]RWGKPV (ends and bridges not checked) [ACTH1-24-point-1-2-NDP-α-MSH]	0.28	21	0.72	1.4			
SYSMEHFRWGKPVGAARRPVKVYPGGGGSGGSYS[Nle]EH[dF]RWGKPV (ends and bridges not checked) [ACTH1-24-point-1-2-7aa-NDP-α-MSH]	0.3	10	0.47	2.3			
SYSMEHFRWGKPVGKKRRAVKVYPSYS[Nle]EH[dF]RWGKPV [ACTH1-24-point-5-NDP-α-MSH]	0.44	28	1.5	3.4			
SYSMEHFRWGKPVGKKAAAVKVYP [ACTH1-24-point-3-5]	0.54	> 100	14	128			
SYSMEHFRWGKPVGKKRRPVKVYPGGGGSGGSYS[Nle]EH[dF]RWGKPV (ends and bridges not checked) [ACTH1-24-7aa-NDP-α-MSH]	0.24	13	0.85	1.5			
SYSXEHXRWGKPVGKKRRPVKVYP (Nle and DPhe as printed: SYS-Nle-EH-DPhe-RWGKPVGKKRRPVKVYP) [NDP-ACTH]	0.11	1.1	0.21	0.22			
SYSMEHFRWGKPVGAARRPVKVYPGGGGSGGGGSSYS[Nle]EH[dF]RWGKPV (ends and bridges not checked) [ACTH1-24-point-1-2-10aa-NDP-α-MSH]	0.45	13	0.58	2.3			
Ac-SYS[Nle]EH[dF]RWGKPVGGGGSGGGGSSYSMEHFRWGKPVGKKRRPVKVYP [NDP-α-MSH-linker-linker-ACTH1-24]	0.46	9.8	1.8	2.2			
SYSMEHFRWGKPVGKKRRAVKVYPGGGGSGGSYS[Nle]EH[dF]RWGKPV [ACTH1-24-point-5-7aa-NDP-α-MSH]	0.22	12	0.76	2.1			
SYSMEHFRWGKPVGKKRRPVKVYPGGGSSYS[Nle]EH[dF]RWGKPV (ends and bridges not checked) [ACTH1-24-4aa-NDP-α-MSH]	0.41	9.3	0.92	1.9			
SYSMEHFRWGKPVGAARRPVKVYPGGGSSYS[Nle]EH[dF]RWGKPV (ends and bridges not checked) [ACTH1-24-point-1-2-4aa-NDP-α-MSH]	0.25	11	0.42	1.7			
SYSMEHFRWGKPVGKKAAAVKVYPGGGGSGGSYS[Nle]EH[dF]RWGKPV (ends and bridges not checked) [ACTH1-24-point-3-5-7aa-NDP-α-MSH]	0.41	8.5	0.72	2.4			
